Data: PMC4441819 (Cell, 2015)

Biological target: T1, HA A/Solomon Islands/03/2006 globular head (Influenza A virus A/Solomon …)
T1 chain: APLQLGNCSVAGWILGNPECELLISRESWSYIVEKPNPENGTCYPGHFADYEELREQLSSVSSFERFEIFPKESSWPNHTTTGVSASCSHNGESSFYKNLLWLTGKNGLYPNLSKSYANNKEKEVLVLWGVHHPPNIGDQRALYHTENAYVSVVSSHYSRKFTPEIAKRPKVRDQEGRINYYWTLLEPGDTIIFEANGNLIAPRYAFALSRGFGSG
Assay: BLI

B1: CH67 Fab, critical dipeptide VD changed to ID (Fab, V domains shown)
VH: QVQLVQSGAEVRKPGASVKVSCKASGYTFTDNYIHWVRQAPGQGLEWMGWIHPNSGATKYAQKFEGWVTMTRDTSISTVYMELSRSRSDDTAVYYCARAGLEPRSIDYYFYGLDVWGQGTAVTVSS
VL: QSALTQPPSVSVAPGQTATITCGGNNIGRKRVDWFQQKPGQAPVLVVYEDSDRPSGIPERFSDSNSGTTATLTISRVEAGDEADYYCQVWDSDSDHVVFGGGTKLTVL
Q: Which results are given for B1?
A: Kd: 1790 ± 120 nM; kon: 42400 M⁻¹ s⁻¹
